From article doi:10.1101/2023.05.09.540094

Columns and labels:
[1] = target: human 26S proteasome (human | human (endogenous in HEK293)) (UniProt O00487)
[2] = target: human 26S proteasome (human | human (endogenous in HEK293)) (UniProt O00487); remark: listed apart in the source
[3] = target: human 26S proteasome (human | human (endogenous in HEK293)) (UniProt O00487); experiment: single-molecule TIRF microscopy

B1: ZFAND5/ZNF216, recombinant wild type (natural protein)
chain: MAQETNQTPGPMLCSTGCGFYGNPRTNGMCSVCYKEHLQRQQNSGRMSPMGTASGSNSPTSDSASVQRADTSLNNCEGAAGSTSEKSRNVPVAALPVTQQMTEMSISREDKITTPKTEVSEPVVTQPSPSVSQPSTSQSEEKAPELPKPKKNRCFMCRKKVGLTGFDCRCGNLFCGLHRYSDKHNCPYDYKAEAAAKIRKENPVVVAEKIQRI
In the case of B1, the increase of the initial (phase I) degradation rate of ubiquitylated cycB-cpGFP [1] is reported as 24%, the increase of the late (phase II) degradation rate of ubiquitylated cycB-cpGFP [1] is reported as 71% and the stimulation of peptide hydrolysis of purified 26S proteasome [2] is reported as < 10 fold.

B2: His6-SNAP-ZFAND5wt (natural protein)
chain: B1 chain
modifications: SNAP tag labelled with SNAP-Surface 649 (fluorescent form) or with SNAP-Biotin (immobilised form)
B2 was tested, and the dwell-time constant, first (short-binding) exponential mode [3] was 50 ms and the dwell-time constant, second (long-binding) exponential mode [3] was 614 ms.
